{"source": "patent US20240261333A1", "about": "“NOVEL TARGETS FOR ENHANCING ANTI-TUMOR IMMUNITY” (THE BROAD INSTITUTE, INC., priority 2021, published 2024)", "key": {"GALNT2 (human)": {"molecular_target": "GALNT2 (human) (UniProt Q10471)", "assay": "co-IP with anti-FLAG, mass spectrometry; lysate of cells with C-FLAG B3GNT2"}, "MAGT1 (human)": {"molecular_target": "MAGT1 (human) (UniProt Q9H0U3)", "sequence (Q9H0U3 30-335 limits assumed)": "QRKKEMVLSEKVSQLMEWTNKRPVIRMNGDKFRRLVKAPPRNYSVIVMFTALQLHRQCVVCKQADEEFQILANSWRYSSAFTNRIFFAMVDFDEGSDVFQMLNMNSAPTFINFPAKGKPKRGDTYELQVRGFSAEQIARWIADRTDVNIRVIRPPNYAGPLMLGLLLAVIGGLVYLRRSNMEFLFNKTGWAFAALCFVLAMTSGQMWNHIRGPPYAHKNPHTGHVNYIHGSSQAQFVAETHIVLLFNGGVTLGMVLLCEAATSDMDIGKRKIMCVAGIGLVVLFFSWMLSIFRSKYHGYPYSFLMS", "assay": "co-IP with anti-FLAG, mass spectrometry; lysate of cells with C-FLAG B3GNT2"}, "PJA2 (human)": {"molecular_target": "PJA2 (human) (UniProt O43164)", "assay": "co-IP with anti-FLAG, mass spectrometry; lysate of cells with C-FLAG B3GNT2"}, "SEL1L (human)": {"molecular_target": "SEL1L (human) (UniProt Q9UBV2)", "assay": "co-IP with anti-FLAG, mass spectrometry; lysate of cells with C-FLAG B3GNT2"}, "ARPC1B (human)": {"molecular_target": "ARPC1B (human) (UniProt O15143)", "assay": "co-IP with IgG control, lysate of C-FLAG B3GNT2 cells, mass spectrometry"}, "CLTC (human)": {"molecular_target": "CLTC (human) (UniProt Q00610)", "sequence (Q00610 2-1675 limits assumed)": "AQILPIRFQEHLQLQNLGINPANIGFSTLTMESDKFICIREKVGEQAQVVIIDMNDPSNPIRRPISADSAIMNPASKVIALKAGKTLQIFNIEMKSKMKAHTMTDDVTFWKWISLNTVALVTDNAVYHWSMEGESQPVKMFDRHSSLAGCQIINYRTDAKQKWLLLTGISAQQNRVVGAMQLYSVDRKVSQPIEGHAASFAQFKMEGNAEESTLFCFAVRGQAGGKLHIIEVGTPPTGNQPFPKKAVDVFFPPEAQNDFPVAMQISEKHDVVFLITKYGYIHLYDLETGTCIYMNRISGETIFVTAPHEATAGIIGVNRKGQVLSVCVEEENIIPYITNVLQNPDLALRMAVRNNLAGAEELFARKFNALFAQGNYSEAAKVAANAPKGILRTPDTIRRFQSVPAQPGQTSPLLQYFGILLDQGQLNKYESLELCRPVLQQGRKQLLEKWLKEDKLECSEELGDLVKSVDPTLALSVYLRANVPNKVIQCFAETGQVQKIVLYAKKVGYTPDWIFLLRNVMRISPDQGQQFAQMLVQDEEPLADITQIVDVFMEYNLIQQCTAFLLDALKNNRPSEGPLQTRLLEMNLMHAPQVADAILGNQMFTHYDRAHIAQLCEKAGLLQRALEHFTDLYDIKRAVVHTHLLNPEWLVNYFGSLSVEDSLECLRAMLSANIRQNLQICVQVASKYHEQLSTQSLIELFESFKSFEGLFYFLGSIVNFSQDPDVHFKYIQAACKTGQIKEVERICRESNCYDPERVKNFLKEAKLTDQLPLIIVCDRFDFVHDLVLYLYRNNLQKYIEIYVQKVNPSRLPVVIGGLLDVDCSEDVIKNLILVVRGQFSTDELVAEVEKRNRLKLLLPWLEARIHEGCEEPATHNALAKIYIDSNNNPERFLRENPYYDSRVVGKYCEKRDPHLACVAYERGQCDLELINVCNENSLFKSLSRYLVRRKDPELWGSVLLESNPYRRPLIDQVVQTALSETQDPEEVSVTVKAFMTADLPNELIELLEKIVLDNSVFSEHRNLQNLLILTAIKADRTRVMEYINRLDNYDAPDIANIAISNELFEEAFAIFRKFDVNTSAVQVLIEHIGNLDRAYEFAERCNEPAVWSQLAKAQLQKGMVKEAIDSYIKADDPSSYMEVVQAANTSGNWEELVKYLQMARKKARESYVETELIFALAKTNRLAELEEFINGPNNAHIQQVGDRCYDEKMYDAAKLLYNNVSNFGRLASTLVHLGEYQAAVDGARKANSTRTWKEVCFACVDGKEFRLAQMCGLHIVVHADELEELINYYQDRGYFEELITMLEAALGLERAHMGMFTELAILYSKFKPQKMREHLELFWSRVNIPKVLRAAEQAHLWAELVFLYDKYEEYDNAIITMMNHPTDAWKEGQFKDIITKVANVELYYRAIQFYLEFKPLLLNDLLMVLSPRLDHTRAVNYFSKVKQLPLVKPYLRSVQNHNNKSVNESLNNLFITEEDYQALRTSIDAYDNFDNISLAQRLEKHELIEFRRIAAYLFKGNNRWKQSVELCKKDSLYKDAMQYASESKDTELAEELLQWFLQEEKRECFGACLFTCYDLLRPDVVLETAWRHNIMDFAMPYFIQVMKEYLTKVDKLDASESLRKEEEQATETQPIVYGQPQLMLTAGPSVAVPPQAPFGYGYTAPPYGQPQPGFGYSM", "assay": "co-IP with IgG control, lysate of C-FLAG B3GNT2 cells, mass spectrometry"}, "COPA (human)": {"molecular_target": "COPA (human) (UniProt P53621)", "assay": "co-IP with IgG control, lysate of C-FLAG B3GNT2 cells, mass spectrometry"}, "CPSF7 (human)": {"molecular_target": "CPSF7 (human) (UniProt Q8N684)", "assay": "co-IP with IgG control, lysate of C-FLAG B3GNT2 cells, mass spectrometry"}, "CPT1A (human)": {"molecular_target": "CPT1A (human) (UniProt P50416)", "sequence (P50416 other isoform, or with tags, fused parts or gaps limits assumed)": "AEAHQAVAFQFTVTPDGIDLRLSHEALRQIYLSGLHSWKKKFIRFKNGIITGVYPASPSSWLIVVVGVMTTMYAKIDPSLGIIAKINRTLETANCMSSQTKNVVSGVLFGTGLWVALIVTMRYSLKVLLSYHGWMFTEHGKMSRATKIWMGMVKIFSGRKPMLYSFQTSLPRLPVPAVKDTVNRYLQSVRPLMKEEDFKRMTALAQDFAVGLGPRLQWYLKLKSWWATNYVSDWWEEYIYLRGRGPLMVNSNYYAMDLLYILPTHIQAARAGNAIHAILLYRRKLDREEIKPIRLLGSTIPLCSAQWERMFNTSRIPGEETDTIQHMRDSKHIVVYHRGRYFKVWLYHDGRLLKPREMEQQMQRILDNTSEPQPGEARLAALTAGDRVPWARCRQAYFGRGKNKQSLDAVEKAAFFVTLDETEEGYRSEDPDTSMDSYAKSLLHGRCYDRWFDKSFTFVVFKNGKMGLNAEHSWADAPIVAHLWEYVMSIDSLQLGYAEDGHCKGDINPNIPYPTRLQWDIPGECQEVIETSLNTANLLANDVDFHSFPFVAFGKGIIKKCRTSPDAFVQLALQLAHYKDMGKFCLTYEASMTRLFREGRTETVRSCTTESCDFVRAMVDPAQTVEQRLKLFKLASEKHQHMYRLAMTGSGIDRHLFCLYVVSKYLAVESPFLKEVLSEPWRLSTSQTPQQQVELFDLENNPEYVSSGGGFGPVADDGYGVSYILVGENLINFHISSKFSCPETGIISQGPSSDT", "assay": "co-IP with IgG control, lysate of C-FLAG B3GNT2 cells, mass spectrometry"}, "HNRNPH1 (human)": {"molecular_target": "HNRNPH1 (human) (UniProt P31943)", "assay": "co-IP with IgG control, lysate of C-FLAG B3GNT2 cells, mass spectrometry"}, "JUP (human)": {"molecular_target": "JUP (human) (UniProt P14923)", "assay": "co-IP with IgG control, lysate of C-FLAG B3GNT2 cells, mass spectrometry"}, "LAMC1 (human)": {"molecular_target": "LAMC1 (human) (UniProt P11047)", "assay": "co-IP with IgG control, lysate of C-FLAG B3GNT2 cells, mass spectrometry"}, "LUC7L3 (human)": {"molecular_target": "LUC7L3 (human) (UniProt O95232)", "assay": "co-IP with IgG control, lysate of C-FLAG B3GNT2 cells, mass spectrometry"}, "MMP14 (human)": {"molecular_target": "MMP14 (human) (UniProt P50281)", "assay": "co-IP with IgG control, lysate of C-FLAG B3GNT2 cells, mass spectrometry"}, "MMS19 (human)": {"molecular_target": "MMS19 (human) (UniProt Q96T76)", "assay": "co-IP with IgG control, lysate of C-FLAG B3GNT2 cells, mass spectrometry"}, "NAP1L1 (human)": {"molecular_target": "NAP1L1 (human) (UniProt P55209)", "assay": "co-IP with IgG control, lysate of C-FLAG B3GNT2 cells, mass spectrometry"}, "[1]": {"molecular_target": "P0AA25.2 [thioredoxin: P0AA25]", "sequence (P0AA25 2-109)": "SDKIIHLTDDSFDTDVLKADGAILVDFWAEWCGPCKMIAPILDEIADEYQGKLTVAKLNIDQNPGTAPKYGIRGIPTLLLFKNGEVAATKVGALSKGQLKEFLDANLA", "assay": "co-IP with IgG control, lysate of C-FLAG B3GNT2 cells, mass spectrometry"}, "P4HA2 (human)": {"molecular_target": "P4HA2 (human) (UniProt O15460)", "sequence (O15460 22-535 limits assumed)": "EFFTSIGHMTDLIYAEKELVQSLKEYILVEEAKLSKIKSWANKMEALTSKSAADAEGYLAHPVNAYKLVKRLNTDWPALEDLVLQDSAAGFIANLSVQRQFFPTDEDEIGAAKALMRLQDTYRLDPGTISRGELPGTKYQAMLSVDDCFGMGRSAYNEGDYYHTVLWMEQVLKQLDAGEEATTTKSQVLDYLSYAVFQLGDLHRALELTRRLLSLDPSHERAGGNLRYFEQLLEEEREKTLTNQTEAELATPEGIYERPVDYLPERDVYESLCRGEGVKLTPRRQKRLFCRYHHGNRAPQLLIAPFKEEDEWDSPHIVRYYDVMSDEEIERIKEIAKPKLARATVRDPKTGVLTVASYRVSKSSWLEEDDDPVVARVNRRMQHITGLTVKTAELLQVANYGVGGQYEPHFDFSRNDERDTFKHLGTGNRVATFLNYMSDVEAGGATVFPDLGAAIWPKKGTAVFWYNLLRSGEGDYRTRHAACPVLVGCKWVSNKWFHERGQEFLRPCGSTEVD", "assay": "co-IP with IgG control, lysate of C-FLAG B3GNT2 cells, mass spectrometry"}, "PRRC2C (human)": {"molecular_target": "PRRC2C (human) (UniProt Q9Y520)", "assay": "co-IP with IgG control, lysate of C-FLAG B3GNT2 cells, mass spectrometry"}, "PSMB5 (human)": {"molecular_target": "PSMB5 (human) (UniProt P28074)", "sequence (P28074 60-263 limits assumed)": "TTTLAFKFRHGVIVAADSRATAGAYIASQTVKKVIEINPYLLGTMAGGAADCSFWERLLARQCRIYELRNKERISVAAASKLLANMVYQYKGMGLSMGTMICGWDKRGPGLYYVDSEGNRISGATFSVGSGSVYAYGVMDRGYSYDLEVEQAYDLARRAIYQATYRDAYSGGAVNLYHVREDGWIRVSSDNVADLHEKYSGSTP", "assay": "co-IP with IgG control, lysate of C-FLAG B3GNT2 cells, mass spectrometry"}, "PURA (human)": {"molecular_target": "PURA (human) (UniProt Q00577)", "sequence (Q00577 2-322 limits assumed)": "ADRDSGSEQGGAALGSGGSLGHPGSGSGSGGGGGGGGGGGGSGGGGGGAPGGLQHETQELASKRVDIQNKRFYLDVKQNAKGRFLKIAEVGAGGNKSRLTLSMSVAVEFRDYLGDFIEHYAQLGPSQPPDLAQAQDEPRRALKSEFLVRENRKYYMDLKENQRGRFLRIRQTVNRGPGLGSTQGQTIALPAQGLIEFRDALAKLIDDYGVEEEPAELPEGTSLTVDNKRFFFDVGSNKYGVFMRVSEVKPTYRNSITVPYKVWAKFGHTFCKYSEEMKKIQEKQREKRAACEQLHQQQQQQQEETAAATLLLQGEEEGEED", "assay": "co-IP with IgG control, lysate of C-FLAG B3GNT2 cells, mass spectrometry"}, "RBM14 (human)": {"molecular_target": "RBM14 (human) (UniProt Q96PK6)", "assay": "co-IP with IgG control, lysate of C-FLAG B3GNT2 cells, mass spectrometry"}, "RPL17 (human)": {"molecular_target": "RPL17 (human) (UniProt P18621)", "assay": "co-IP with IgG control, lysate of C-FLAG B3GNT2 cells, mass spectrometry"}, "RPL6 (human)": {"molecular_target": "RPL6 (human) (UniProt Q02878)", "assay": "co-IP with IgG control, lysate of C-FLAG B3GNT2 cells, mass spectrometry"}, "RPL7A (human)": {"molecular_target": "RPL7A (human) (UniProt P62424)", "assay": "co-IP with IgG control, lysate of C-FLAG B3GNT2 cells, mass spectrometry"}, "RPS20 (human)": {"molecular_target": "RPS20 (human) (UniProt P60866)", "assay": "co-IP with IgG control, lysate of C-FLAG B3GNT2 cells, mass spectrometry"}, "RPS24 (human)": {"molecular_target": "RPS24 (human) (UniProt P62847)", "assay": "co-IP with IgG control, lysate of C-FLAG B3GNT2 cells, mass spectrometry"}, "RUVBL2 (human)": {"molecular_target": "RUVBL2 (human) (UniProt Q9Y230)", "assay": "co-IP with IgG control, lysate of C-FLAG B3GNT2 cells, mass spectrometry"}, "SBSN (human)": {"molecular_target": "SBSN (human) (UniProt Q6UWP8)", "assay": "co-IP with IgG control, lysate of C-FLAG B3GNT2 cells, mass spectrometry"}, "SPARC (human)": {"molecular_target": "SPARC (human) (UniProt P09486)", "assay": "co-IP with IgG control, lysate of C-FLAG B3GNT2 cells, mass spectrometry"}, "SRSF6 (human)": {"molecular_target": "SRSF6 (human) (UniProt Q13247)", "assay": "co-IP with IgG control, lysate of C-FLAG B3GNT2 cells, mass spectrometry"}, "TGM1 (human)": {"molecular_target": "TGM1 (human) (UniProt P22735)", "assay": "co-IP with IgG control, lysate of C-FLAG B3GNT2 cells, mass spectrometry"}, "TM9SF1 (human)": {"molecular_target": "TM9SF1 (human) (UniProt O15321)", "assay": "co-IP with IgG control, lysate of C-FLAG B3GNT2 cells, mass spectrometry"}, "TTC13 (human)": {"molecular_target": "TTC13 (human) (UniProt Q8NBP0)", "assay": "co-IP with IgG control, lysate of C-FLAG B3GNT2 cells, mass spectrometry"}, "UniProt P01837.1": {"molecular_target": "UniProt P01837.1", "assay": "co-IP with IgG control, lysate of C-FLAG B3GNT2 cells, mass spectrometry"}, "XPO1 (human)": {"molecular_target": "XPO1 (human) (UniProt O14980)", "sequence (O14980 whole entry)": "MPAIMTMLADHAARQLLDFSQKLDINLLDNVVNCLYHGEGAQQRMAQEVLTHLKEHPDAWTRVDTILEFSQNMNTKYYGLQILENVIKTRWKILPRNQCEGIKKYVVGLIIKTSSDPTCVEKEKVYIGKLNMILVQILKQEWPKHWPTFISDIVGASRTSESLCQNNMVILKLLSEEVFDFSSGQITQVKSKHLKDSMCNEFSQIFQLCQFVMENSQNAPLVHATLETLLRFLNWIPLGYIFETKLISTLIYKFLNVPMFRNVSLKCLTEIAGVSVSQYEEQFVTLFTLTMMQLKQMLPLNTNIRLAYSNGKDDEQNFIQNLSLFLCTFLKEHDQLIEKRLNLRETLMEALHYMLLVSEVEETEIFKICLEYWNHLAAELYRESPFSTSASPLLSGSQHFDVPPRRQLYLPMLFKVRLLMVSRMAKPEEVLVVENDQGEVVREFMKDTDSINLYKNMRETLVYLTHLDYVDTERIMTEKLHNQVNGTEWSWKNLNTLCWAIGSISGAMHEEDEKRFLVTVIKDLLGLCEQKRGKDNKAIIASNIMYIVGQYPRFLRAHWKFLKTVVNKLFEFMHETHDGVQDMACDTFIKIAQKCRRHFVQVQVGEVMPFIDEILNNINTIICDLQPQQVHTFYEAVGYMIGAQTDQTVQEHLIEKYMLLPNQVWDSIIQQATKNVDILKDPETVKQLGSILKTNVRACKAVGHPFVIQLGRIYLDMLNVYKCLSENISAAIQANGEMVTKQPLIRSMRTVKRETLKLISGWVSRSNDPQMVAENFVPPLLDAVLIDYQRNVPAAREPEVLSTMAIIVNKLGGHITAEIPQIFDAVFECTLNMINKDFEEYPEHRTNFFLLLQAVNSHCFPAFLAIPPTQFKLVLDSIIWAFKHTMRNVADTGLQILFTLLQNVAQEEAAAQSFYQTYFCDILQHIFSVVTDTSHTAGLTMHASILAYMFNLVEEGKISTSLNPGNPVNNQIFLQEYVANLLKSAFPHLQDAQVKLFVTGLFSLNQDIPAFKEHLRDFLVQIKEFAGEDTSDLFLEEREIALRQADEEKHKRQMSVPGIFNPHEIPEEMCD", "assay": "co-IP with IgG control, lysate of C-FLAG B3GNT2 cells, mass spectrometry"}, "XPOT (human)": {"molecular_target": "XPOT (human) (UniProt O43592)", "assay": "co-IP with IgG control, lysate of C-FLAG B3GNT2 cells, mass spectrometry"}}, "data": [{"substance": "C-terminal FLAG tagged B3GNT2 (from UniProt Q9NY97 1-397) (enzyme)", "values": [{"measurement": "co-IP mass spectrometry count", "setting": "GALNT2 (human)", "value": 2}, {"measurement": "co-IP mass spectrometry count", "setting": "MAGT1 (human)", "value": 2}, {"measurement": "co-IP mass spectrometry count", "setting": "PJA2 (human)", "value": 2}, {"measurement": "co-IP mass spectrometry count", "setting": "SEL1L (human)", "value": 5}]}, {"substance": "IgG control (Millipore Sigma 12-371) (antibody)", "values": [{"measurement": "co-IP/MS count, C-term IgG", "setting": "ARPC1B (human)", "value": 2}, {"measurement": "co-IP/MS count, C-term IgG", "setting": "CLTC (human)", "value": 5}, {"measurement": "co-IP/MS count, C-term IgG", "setting": "COPA (human)", "value": 0}, {"measurement": "co-IP/MS count, C-term IgG", "setting": "CPSF7 (human)", "value": 9}, {"measurement": "co-IP/MS count, C-term IgG", "setting": "CPT1A (human)", "value": 0}, {"measurement": "co-IP/MS count, C-term IgG", "setting": "HNRNPH1 (human)", "value": 11}, {"measurement": "co-IP/MS count, C-term IgG", "setting": "JUP (human)", "value": 36}, {"measurement": "co-IP/MS count, C-term IgG", "setting": "LAMC1 (human)", "value": 0}, {"measurement": "co-IP/MS count, C-term IgG", "setting": "LUC7L3 (human)", "value": 3}, {"measurement": "co-IP/MS count, C-term IgG", "setting": "MMP14 (human)", "value": 0}, {"measurement": "co-IP/MS count, C-term IgG", "setting": "MMS19 (human)", "value": 0}, {"measurement": "co-IP/MS count, C-term IgG", "setting": "NAP1L1 (human)", "value": 0}, {"measurement": "co-IP/MS count, C-term IgG", "setting": "[1]", "value": 8}, {"measurement": "co-IP/MS count, C-term IgG", "setting": "P4HA2 (human)", "value": 0}, {"measurement": "co-IP/MS count, C-term IgG", "setting": "PRRC2C (human)", "value": 6}, {"measurement": "co-IP/MS count, C-term IgG", "setting": "PSMB5 (human)", "value": 0}, {"measurement": "co-IP/MS count, C-term IgG", "setting": "PURA (human)", "value": 0}, {"measurement": "co-IP/MS count, C-term IgG", "setting": "RBM14 (human)", "value": 0}, {"measurement": "co-IP/MS count, C-term IgG", "setting": "RPL17 (human)", "value": 2}, {"measurement": "co-IP/MS count, C-term IgG", "setting": "RPL6 (human)", "value": 4}, {"measurement": "co-IP/MS count, C-term IgG", "setting": "RPL7A (human)", "value": 5}, {"measurement": "co-IP/MS count, C-term IgG", "setting": "RPS20 (human)", "value": 5}, {"measurement": "co-IP/MS count, C-term IgG", "setting": "RPS24 (human)", "value": 2}, {"measurement": "co-IP/MS count, C-term IgG", "setting": "RUVBL2 (human)", "value": 0}, {"measurement": "co-IP/MS count, C-term IgG", "setting": "SBSN (human)", "value": 15}, {"measurement": "co-IP/MS count, C-term IgG", "setting": "SPARC (human)", "value": 0}, {"measurement": "co-IP/MS count, C-term IgG", "setting": "SRSF6 (human)", "value": 5}, {"measurement": "co-IP/MS count, C-term IgG", "setting": "TGM1 (human)", "value": 10}, {"measurement": "co-IP/MS count, C-term IgG", "setting": "TM9SF1 (human)", "value": 0}, {"measurement": "co-IP/MS count, C-term IgG", "setting": "TTC13 (human)", "value": 0}, {"measurement": "co-IP/MS count, C-term IgG", "setting": "UniProt P01837.1", "value": 108}, {"measurement": "co-IP/MS count, C-term IgG", "setting": "XPO1 (human)", "value": 0}, {"measurement": "co-IP/MS count, C-term IgG", "setting": "XPOT (human)", "value": 0}]}]}
